For 94 variants, protein stability index results are on record in the supplement of paper PMC10567573.

Sequences and labels used below:
B1: ESRRA (parent)
chain: SLPLQDELAFAEDLVLDEEGARAA
B2: KLHDC10 (parent)
chain: CPIIRIPNRFLRGHRPPPARSGHR
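Further: lentivirally expressed fusions sorted by FACS into six bins by GFP to DsRed ratio, PSI derived from sequencing read proportions per bin multiplied by bin number.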

The first data set covers variants of B1. Briefly: protein stability index of a GFP-peptide fusion (GPS, HEK-293T) (PSI 1-6); higher = more stable. The conditions noted are these: c terminus: a fixed tail appended.
With SLPLQDELAFAEDLVLDEEGAVAA [R22V], the protein stability index was 3.69.

Take SLPLQDELAFAEDLVLDEEGAEAA [R22E]: the protein stability index turned out to be 4.36. For SLPLQDELAFAELLVLDEEGARAA [D13L], the protein stability index turned out to be 2.68. Turning to SLPLQDELAFAENLVLDEEGARAA [D13N], the protein stability index was 2.79.

On to SLPLQDELAFAEDLVLDEENARAA [G20N], for which the protein stability index stood at 3.52. For SLPLQDELAFAEDLVLDEEAARAA [G20A], the protein stability index was found to be 4.48.

For SLPLQDELAFAEDLVLMEEGARAA [D17M], the protein stability index came to 2.03.

Take SLPLQDELAFVEDLVLDEEGARAA [A11V]: the protein stability index stood at 5.07. Still for that read-out and setting: in the case of SLPLQDELAFNEDLVLDEEGARAA [A11N] it was 5.7. Same read-out and setting: in the case of SLPLQDELAFGEDLVLDEEGARAA [A11G] it was 5.17; in that of SLPLQDELAFAEDLKLDEEGARAA [V15K], 5.57. Consider SLPLQDELAFAEDLSLDEEGARAA [V15S], for which the protein stability index was 5.76. As to SLPLVDELAFAEDLVLDEEGARAA [Q5V], the protein stability index was 3.64. For SLPLQSELAFAEDLVLDEEGARAA [D6S], the protein stability index worked out at 3.25. With SLPLQYELAFAEDLVLDEEGARAA [D6Y], the protein stability index was determined as 2.02.

For SLPLQCELAFAEDLVLDEEGARAA [D6C], the protein stability index stood at 2.42. Consider SLPLQLELAFAEDLVLDEEGARAA [D6L], for which the protein stability index is 3.26. For SLPPQDELAFAEDLVLDEEGARAA [L4P], the protein stability index was determined as 5.46.

In the case of SLPFQDELAFAEDLVLDEEGARAA [L4F], the protein stability index stood at 4.96.

For SLPDQDELAFAEDLVLDEEGARAA [L4D], the protein stability index came out at 4.97. On the same count and under the same terms, the result for SLPLQDELAFAEDLVEDEEGARAA [L16E] reads 5.2. On to SLPLQDELAFAEDLVRDEEGARAA [L16R], for which the protein stability index was found to be 3.55.

In the case of SLPLQDELAFAEDLVLDEEGARKA [A23K], the protein stability index was 2.65. For the variant SLPLQDELAFAEDLVLDEEGARQA [A23Q], the protein stability index came out at 3.19. On to SLPLQDEQAFAEDLVLDEEGARAA [L8Q], for which the protein stability index is 5.29. On to SLPLQDNLAFAEDLVLDEEGARAA [E7N], for which the protein stability index worked out at 4.51.

Take SLPLQDSLAFAEDLVLDEEGARAA [E7S]: the protein stability index amounted to 3.29. Take SLPLQDELFFAEDLVLDEEGARAA [A9F]: the protein stability index came to 4.56. For SLPLQDELPFAEDLVLDEEGARAA [A9P], the protein stability index came out at 5.74. SLPLQDELAFAEDLVLDNEGARAA [E18N]: the protein stability index worked out at 3.68. On the same count and under the same terms, the result for SLPLQDELAFAKDLVLDEEGARAA [E12K] reads 5.28. Turning to SLPLQDELAFAGDLVLDEEGARAA [E12G], the protein stability index amounted to 4.91. Regarding SLPLQDELAFAHDLVLDEEGARAA [E12H], the protein stability index amounted to 4.72. Turning to SLPLQDELAFAEDLVLDEEGARAD [A24D], the protein stability index was 3.71.

For the variant SLPLQDELAFAEDLVLDEEGARAT [A24T], the protein stability index was 3.94. Consider SLPLQDELAFAEDLVLDEEGARAE [A24E], for which the protein stability index is 3.5. SAPLQDELAFAEDLVLDEEGARAA [L2A]: the protein stability index worked out at 4.07. As for SKPLQDELAFAEDLVLDEEGARAA [L2K], the protein stability index is 4.4. For SEPLQDELAFAEDLVLDEEGARAA [L2E], the protein stability index turned out to be 5.29.

For the variant SLPLQDELAIAEDLVLDEEGARAA [F10I], the protein stability index came to 3.63. Turning to SLPLQDELAVAEDLVLDEEGARAA [F10V], the protein stability index was 3.69.

Regarding VLPLQDELAFAEDLVLDEEGARAA [S1V], the protein stability index amounted to 2.89. The same measure, in the same setting: the result for KLPLQDELAFAEDLVLDEEGARAA [S1K] reads 3.09; that for YLPLQDELAFAEDLVLDEEGARAA [S1Y], 2.78; that for QLPLQDELAFAEDLVLDEEGARAA [S1Q], 3.09.

As to NLPLQDELAFAEDLVLDEEGARAA [S1N], the protein stability index was 2.81. Still for that read-out and setting: the result for SLPLQDELAFAEDPVLDEEGARAA [L14P] reads 5.8; that for SLPLQDELAFAEDMVLDEEGARAA [L14M], 3.29; that for SLQLQDELAFAEDLVLDEEGARAA [P3Q], 4.21. Still for that read-out and setting: in the case of SLTLQDELAFAEDLVLDEEGARAA [P3T] it was 4.8. Regarding SLLLQDELAFAEDLVLDEEGARAA [P3L], the protein stability index stood at 4.84.

For the variant SLPLQDELAFAEDLVLDEEGHRAA [A21H], the protein stability index amounted to 3.09.

The variants in a further data set derive from B2. Described as above. The note with it: c terminus: a fixed tail appended.
Regarding CPIIRIPCRFLRGHRPPPARSGHR [N8C], the protein stability index was found to be 1.94. As to CPIIRIPFRFLRGHRPPPARSGHR [N8F], the protein stability index is 1.81.

Turning to CPIIRIPDRFLRGHRPPPARSGHR [N8D], the protein stability index worked out at 2.15. Consider CPIIRIPSRFLRGHRPPPARSGHR [N8S], for which the protein stability index was found to be 2.44.

On to CPIIRIPNRFLRGHRPPPGRSGHR [A19G], for which the protein stability index amounted to 1.82. Still for that read-out and setting: the result for CPIIRIPNRFLRGHRPPPDRSGHR [A19D] reads 2.95; that for CPIIRIPNRFLRGHRPPPSRSGHR [A19S], 1.8; that for CPIIRIPNRFLRGHRPPPNRSGHR [A19N], 2.23. For CPIIRIPNRFLRGHRPPPLRSGHR [A19L], the protein stability index was 1.46. CPIIRIPNRFLRGHRPPPARSAHR [G22A]: the protein stability index is 1.57. For the variant CPIIRIPNRFLRGHRPPPARSRHR [G22R], the protein stability index amounted to 2.17. For CPIIRIPNRFLRGHRPPPARSVHR [G22V], the protein stability index was 2.76.

With CPIIRIPNRFLRGHRPPPARSDHR [G22D], the protein stability index came to 2.62. Still for that read-out and setting: the result for CPIIRIPNRFLRGHRPPPARSKHR [G22K] reads 1.71; that for CPIIRIPNRFLRGHRPPPARSQHR [G22Q], 1.33; that for CPIIGIPNRFLRGHRPPPARSGHR [R5G], 3.42. Take CPIIMIPNRFLRGHRPPPARSGHR [R5M]: the protein stability index worked out at 1.6. As to CPIIAIPNRFLRGHRPPPARSGHR [R5A], the protein stability index was 3.57. In the case of CPIINIPNRFLRGHRPPPARSGHR [R5N], the protein stability index stood at 4.4. With CPICRIPNRFLRGHRPPPARSGHR [I4C], the protein stability index worked out at 2.31.

As to CPIMRIPNRFLRGHRPPPARSGHR [I4M], the protein stability index came out at 1.86. Regarding CPINRIPNRFLRGHRPPPARSGHR [I4N], the protein stability index came to 4.38.

Take CPITRIPNRFLRGHRPPPARSGHR [I4T]: the protein stability index worked out at 3.23. For CPIQRIPNRFLRGHRPPPARSGHR [I4Q], the protein stability index is 3.94. For CPIYRIPNRFLRGHRPPPARSGHR [I4Y], the protein stability index was determined as 3.02.

Regarding CPIARIPNRFLRGHRPPPARSGHR [I4A], the protein stability index came out at 2.7. For CPIKRIPNRFLRGHRPPPARSGHR [I4K], the protein stability index was 3.06. As for CPIIRIPNRFLRGHRYPPARSGHR [P16Y], the protein stability index was 1.31.

Turning to CPIIRIPNRFLRGHRKPPARSGHR [P16K], the protein stability index stood at 3.27.

Turning to CPIIRIPNRFLRGHRFPPARSGHR [P16F], the protein stability index was found to be 1.9. On to CPIIRIPNRFLRGHRIPPARSGHR [P16I], for which the protein stability index is 1.73.

Consider CPIIRIPNRFLRGHRCPPARSGHR [P16C], for which the protein stability index was determined as 2.5. As for CPIIRIPNRFLRGHRNPPARSGHR [P16N], the protein stability index was 2.56. As for CPIIRIPNRFLRGHRRPPARSGHR [P16R], the protein stability index came out at 1.2. Still for that read-out and setting: the result for CGIIRIPNRFLRGHRPPPARSGHR [P2G] reads 2.41; that for CSIIRIPNRFLRGHRPPPARSGHR [P2S], 1.31; that for CPMIRIPNRFLRGHRPPPARSGHR [I3M], 2.09. In the case of CPDIRIPNRFLRGHRPPPARSGHR [I3D], the protein stability index was found to be 2.16.

In the case of CPLIRIPNRFLRGHRPPPARSGHR [I3L], the protein stability index came out at 2.15.

Take CPHIRIPNRFLRGHRPPPARSGHR [I3H]: the protein stability index was 2.16. CPNIRIPNRFLRGHRPPPARSGHR [I3N]: the protein stability index amounted to 3.74. Consider CPIIRIPNRFLEGHRPPPARSGHR [R12E], for which the protein stability index is 2.47.
